In US20110143963A1:
pIC50, pKd: −log10 of the molar value.

Experiments:
[1] = target: ARVCF peptide PQPVDSWV-COOH (eight-residue motif corresponding to the ARVCF C-terminus); assay: SPR (BIAcore)
[2] = target: δ-catenin peptide PASPDSWV-COOH; assay: SPR (BIAcore)
eSH2-3 (human) [3] = target: eSH2-3 (human) (UniProt P62993); assay: competition phage ELISA: eSH2-3 phage pre-incubated with free pY1139 peptide, unbound phage captured
eSH2-6 (human) [4] = target: eSH2-6 (human) (UniProt P62993); assay: competition phage ELISA: eSH2-6 phage pre-incubated with free pY1139 peptide, unbound phage captured
eSH2-3 (human) [5] = target: eSH2-3 (human) (UniProt P62993); assay: panel B, competition phage ELISA: eSH2-3 phages incubated with free pY1139 peptide (0 to 50 nM), phages not bound to the free peptide captured and detected
eSH2-6 (human) [6] = target: eSH2-6 (human) (UniProt P62993); assay: panel C, competition phage ELISA: eSH2-6 phages incubated with free pY1139 peptide (0 to 50 nM), phages not bound to the free peptide captured and detected
[7] = target: SH2 domain of human Grb2 (human) (UniProt P62993); assay: panel D, competition phage ELISA: wtSH2 (Grb2-SH2) phages incubated with free pY1139 peptide (0 to about 2200 nM), phages not bound to the free peptide captured and detected
Sequence of SH2 domain of human Grb2 (human) (P62993 56-153 limits assumed): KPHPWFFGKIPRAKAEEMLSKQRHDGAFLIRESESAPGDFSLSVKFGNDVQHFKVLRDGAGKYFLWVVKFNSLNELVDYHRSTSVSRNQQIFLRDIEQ

Substance | pKd [1] | pKd [2] | pIC50 (eSH2-3 (human) [3]) | pIC50 (eSH2-6 (human) [4]) | pIC50 (eSH2-3 (human) [5]) | pIC50 (eSH2-6 (human) [6]) | pIC50 [7]
PDZ domain of Erbin (wild-type) (from UniProt Q96RT1 1314-1412) | 5.00 | 5.00 |  |  |  |  | 
pY-containing peptide corresponding to residues 1130-1146 of ErbB2 (HER2) pY1139 |  |  | 4.05 | 4.05 | 10.05 | 10.05 | 7.15
